Patent publication US20220288176
Where two headings read alike, the source gives them in different places.

Key:
YTHDF2 (Homo sapiens) = details: co-localization with RIG-I and YTHDF2 in HeLa
RIG-I (Homo sapiens) = details: immunofluorescence co-localization with RIG-I and K63-polyubiquitin in HeLa

Substance | activity (YTHDF2 (Homo sapiens); 10% m6A random) [%] | activity (YTHDF2 (Homo sapiens)) [%] | activity (RIG-I (Homo sapiens)) [%]
10% m6A circFOREIGN | 65.3 | – | –
FITC-circFOREIGN | – | 33.8 | 85.5
